In assay [1] the target is T1, GARS, endogenous in H929 multiple myeloma cells (human, UniProt P41250 37-739, limits assumed).
T1 construct: Native protein pulled down from H929 lysates; also called Glycyl-tRNA synthetase; GlyRS
T1 sequence: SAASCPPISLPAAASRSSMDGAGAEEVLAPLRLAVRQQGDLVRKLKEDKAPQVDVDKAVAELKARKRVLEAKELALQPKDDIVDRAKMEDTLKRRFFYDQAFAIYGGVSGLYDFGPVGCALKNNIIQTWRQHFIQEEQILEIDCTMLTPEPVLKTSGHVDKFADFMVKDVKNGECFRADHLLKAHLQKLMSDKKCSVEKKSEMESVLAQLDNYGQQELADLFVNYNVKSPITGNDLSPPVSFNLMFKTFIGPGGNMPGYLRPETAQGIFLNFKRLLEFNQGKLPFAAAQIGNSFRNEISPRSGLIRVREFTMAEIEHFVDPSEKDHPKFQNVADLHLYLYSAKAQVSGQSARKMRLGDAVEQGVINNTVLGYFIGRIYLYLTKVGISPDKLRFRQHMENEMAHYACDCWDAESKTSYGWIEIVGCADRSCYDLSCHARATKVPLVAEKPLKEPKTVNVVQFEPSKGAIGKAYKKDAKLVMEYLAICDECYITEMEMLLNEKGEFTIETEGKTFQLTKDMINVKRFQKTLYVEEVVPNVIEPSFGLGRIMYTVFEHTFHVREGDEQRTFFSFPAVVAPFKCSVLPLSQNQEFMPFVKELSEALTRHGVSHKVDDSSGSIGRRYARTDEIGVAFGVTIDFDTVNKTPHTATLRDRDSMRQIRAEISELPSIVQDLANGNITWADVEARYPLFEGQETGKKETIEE
Kind of assay: flow cytometry, H929 + NT Green siRNA; None 1.35; surface target GARS putative. Background: Flow cytometry measures light scatter and fluorescence of single cells or particles in a stream.

Assay [2] deals with T1, GARS, endogenous in H929 multiple …. The assay is described as follows: flow cytometry, H929 + vehicle; None 2.74; surface target GARS putative.
Assay [3] shares this target. Kind of assay: flow cytometry, H929 + CDH18 siRNA; None 0.19; surface target GARS putative.
Assay [4] has the same target. The assay is described as follows: flow cytometry, H929 + ICAM1 siRNA; None 1.06; surface target GARS putative.
A further assay deals with T2, SELL (L-Selectin).
T2 construct: coated protein in the ELISA; also called SELL-Fc-His (R&D Systems)
T2 chain: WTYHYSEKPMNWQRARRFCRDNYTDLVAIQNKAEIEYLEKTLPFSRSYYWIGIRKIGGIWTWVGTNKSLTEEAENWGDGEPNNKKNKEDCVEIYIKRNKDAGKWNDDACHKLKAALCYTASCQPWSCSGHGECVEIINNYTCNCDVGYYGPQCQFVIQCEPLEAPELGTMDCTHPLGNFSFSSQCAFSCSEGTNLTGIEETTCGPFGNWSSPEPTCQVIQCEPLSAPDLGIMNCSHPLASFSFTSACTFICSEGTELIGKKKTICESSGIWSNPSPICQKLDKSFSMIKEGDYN
The assay is described as follows: ELISA on coated SELL-Fc-His. The procedure:
(§1) Recombinant purified ECDs (50-150 ng) of each putative target protein were coated, incubated with 150 ng of the indicated primary antibody, and binding was detected using a peroxidase-conjugated anti-human Fab secondary antibody. Heatmap represents averages of technical triplicates. (8B) Target validation via siRNA knockdown. H929 cells were transfected with siRNA pools targeting the putative antibody targets ICAM1, CADM1, and PTPRG. Cells were then subjected to cognate IgG binding analysis via flow cytometry. (NT, non-targeting siRNA).
(§2) ELISA ELISA was conducted as described previously. Briefly, 50-150 ng of antigen was coated overnight in half-area 96-well plates at 4° C., blocked with 3% BSA at 37° C. for 1 h, and 150 ng of chimeric rabbit/human IgG1 was added, incubating for 2 h at 37° C. […] After incubating at 37° C. for 15 min-1 h (depending on intensity of controls), data were acquired using a SpectraMax M5 plate reader (Molecular Devices).

A further assay has as its target T3, SLAMF7.
T3 construct: coated protein in the ELISA; also called SLAMF7-StrepTag
T3 chain: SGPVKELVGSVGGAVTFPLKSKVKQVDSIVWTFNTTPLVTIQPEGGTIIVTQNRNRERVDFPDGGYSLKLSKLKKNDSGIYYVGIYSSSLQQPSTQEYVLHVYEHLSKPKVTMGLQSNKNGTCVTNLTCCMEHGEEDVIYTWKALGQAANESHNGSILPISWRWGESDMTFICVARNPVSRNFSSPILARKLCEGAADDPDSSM
The assay is described as follows: ELISA on coated SLAMF7-StrepTag. The protocol:
as §1, §2

B1: HW-16 chimeric rabbit-human IgG1 LA/LA/PG (antibody, V domains shown)
VH: QSLEESGGRLVTPGTPLTLTCTASGFSLSSYAMSWVRQAPGKGLEWIGTMPTGGGTYYASWAKGRFTISKTSTTVDLQITSPTTEDTATYFCAKHWNIWGPGTLVTISS
VL: DIVLTQTPSSTSTAVGDTVTINCRASQSIGRNLAWFQQKPGQPPKLLIYRASNLASGVPSRFKGSGSRTQFTLTISGVQREDAATYYCLGSYSSSDTAFGGGTELEILR
notes: Fc-silenced (L234A/L235A/P329G) IgG1, kappa; Alexa Fluor 647-labeled in single-step flow cytometry; Cluster C-45
Regarding B1, the “Cells stained (%)” value in assay [1] worked out at 99.1%; in assay [2], 99.1%; in assay [3] it was 98.6%; in assay [4], 98.1%.

B2: HW-81 chimeric rabbit-human IgG1 LA/LA/PG (antibody, V domains shown)
VH: QKQLVESGGGLVTPGGTLTLTCTVSGFSLSSNGVSWVRQAPGKGLEYIGLIRSIGSTYYATWAKGRFTISKTSTTVDLKITSPTTEDTATYFCARGGYRNGFKLWGPGTLVTVSS
VL: QPVLTQSPSVSAALGASAKLTCTLSSAHKTYYIEWYQQQHPGKAPRYLMQLQSDGSYTKGTGVPDRFSGSSSGADRYLIISSVQAEDEADYICGVIDSAVYVFGGGTQLTVTG
notes: Fc-silenced (L234A/L235A/P329G) IgG1, lambda; Alexa Fluor 647-labeled in single-step flow cytometry; Cluster C-45
On to B2, for which the “Cells stained (%)” value in assay [1] came to 99.7%; in assay [2] it was 99.7%; in assay [3] it was 99.3%; in assay [4] it was 99.1%. Besides, the binding result in the assay with SELL (L-Selectin) and in the assay with SLAMF7 was “no binding (tested: 150 ng IgG1 per well)” each time.

B3: HW-28 chimeric rabbit-human IgG1 LA/LA/PG (antibody, V domains shown)
VH: QKQLVESGGRLVTPGTPLTLTCTASGFSLSSNAMSWVRQAPGEGLQWIGTISSGGSTYYASWAKGRFTISKTSTTVTLKMTSLTTEDTATYFCARGADLHRLWGPGTLVTVSS
VL: SFVLTQPASVQVNLGQTVSLTCTGKPLSRSFASWYQQKPGQAPVLVIYRDTSRPSGVPDRFSGSSSGNTATLTISGAQAGDEADYYCATSDGSGSSYQYVFGGGTQLTVTG
notes: as for B2
B3: the “Cells stained (%)” value in assay [1] came out at 98.5%; in assay [2], 98.6%; in assay [3], 99.4%; in assay [4] it was 96.9%.

B4: HW-45 chimeric rabbit-human IgG1 LA/LA/PG (antibody, V domains shown)
VH: QKQLVESGGRLVTPGTPLTLTCTVSGFSLSSYAMGWFRQAPGKGLEWIGIINSYGSTYYASWAKGRFTISKTSTTVDLKITSPTTEDTATYFCGRRIGSARFDPWGPGTLVTVSS
VL: SFVLTQPASVQVNLGQTVSLTCTADTLSRSYASWYQQKPGQAPVLLIYRDTRRPSGVPDRFSGSSSGNTATLTISGAQAGDEADYYCATSDGSGSSYRLVFGGGTQLTVTG
notes: Fc-silenced (L234A/L235A/P329G) IgG1, lambda; Alexa Fluor 647-labeled in single-step flow cytometry; Prototype of cluster C-45
With B4, the “Cells stained (%)” value came to 97.9% in assay [1], 96.8% in assay [2], 99.4% in assay [3] and 95.1% in assay [4].

B5: HW-8 chimeric rabbit-human IgG1 LA/LA/PG (antibody, V domains shown)
VH: QSLEESGGRLVTPGTPLTLTCTVSGFSLSSYAMSWVRQAPGKGLEWIGAISTGGSTTYASWAKGRFTISKTSSTTVDLKMTSLTTEDTATYFCVRHFRLWGPGTLVTISS
VL: QVLTQTPSSVSAAVGGTVTIKCQASQSIGSALAWFQQKPGQRPKLLIYRASNLASGVPSRFKGSGSGTEFALTISGVQREDAATYYCLGGAAAVWAFGAGTNVEIKR
notes: as for B1
Regarding B5, the “Cells stained (%)” value in assay [1] was determined as 86.6%; in assay [2], 84.7%; in assay [3], 99.4%; in assay [4], 76.3%. Besides, the binding result with SELL (L-Selectin) and with SLAMF7 was “no binding (tested: 150 ng IgG1 per well)” throughout.

B6: HW-56 chimeric rabbit-human IgG1 LA/LA/PG (antibody, V domains shown)
VH: QSVKESEGGLFKPTDTLTLTCTASGFTVSTNAVTWVRQAPGNGLEYIGTIGRSGSAYFASWAKRRSTLTRDINLNTVTLKMTSLTAADTATYFCVRGSPGYRTAISIWGPGTLVTISS
VL: AVMTQTPSSTSAAVEGTVTINCQASQSISNRLSWFQQKPGQPPKLLIYQASTLASGVPSRFKGSGSGTEFTLTISGVQREDAATYYCLGSYSSSDASFGGGTKLEIKR
notes: as for B1
Turning to B6, the “Cells stained (%)” value came to 99.7% in assay [1], 99.5% in assay [2], 99.9% in assay [3] and 99.2% in assay [4].

These data come from patent US20260049134A1 (UNIVERSITY OF FLORIDA RESEARCH FOUNDATION, published 2026).
